According to patent publication US20250295737A1 (AstraZeneca / MedImmune, published 2025):

T1: mouse RXFP1 (mouse, UniProt Q6R6I7 1-758)
T1 sequence (looked up): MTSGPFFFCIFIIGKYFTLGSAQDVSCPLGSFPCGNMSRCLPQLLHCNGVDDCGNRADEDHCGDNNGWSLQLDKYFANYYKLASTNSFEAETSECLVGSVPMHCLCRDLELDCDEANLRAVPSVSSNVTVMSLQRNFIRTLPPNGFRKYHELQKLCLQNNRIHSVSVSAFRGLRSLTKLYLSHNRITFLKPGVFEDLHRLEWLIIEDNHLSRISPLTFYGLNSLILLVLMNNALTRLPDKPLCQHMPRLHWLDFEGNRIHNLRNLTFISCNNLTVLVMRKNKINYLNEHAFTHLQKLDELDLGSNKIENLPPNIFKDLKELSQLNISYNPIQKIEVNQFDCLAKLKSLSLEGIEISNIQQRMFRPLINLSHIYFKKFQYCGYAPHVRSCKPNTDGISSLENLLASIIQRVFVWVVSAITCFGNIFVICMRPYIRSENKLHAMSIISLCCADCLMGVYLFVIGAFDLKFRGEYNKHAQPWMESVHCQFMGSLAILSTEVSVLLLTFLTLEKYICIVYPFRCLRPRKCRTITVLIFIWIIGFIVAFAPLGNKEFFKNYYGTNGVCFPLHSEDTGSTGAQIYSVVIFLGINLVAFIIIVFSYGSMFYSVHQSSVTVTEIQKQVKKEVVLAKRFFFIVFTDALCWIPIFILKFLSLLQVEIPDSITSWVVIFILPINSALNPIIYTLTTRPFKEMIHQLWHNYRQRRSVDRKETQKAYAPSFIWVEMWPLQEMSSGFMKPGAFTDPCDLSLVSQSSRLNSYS

T2: human RXFP1 (human, UniProt Q9HBX9 1-757)
T2 sequence (looked up): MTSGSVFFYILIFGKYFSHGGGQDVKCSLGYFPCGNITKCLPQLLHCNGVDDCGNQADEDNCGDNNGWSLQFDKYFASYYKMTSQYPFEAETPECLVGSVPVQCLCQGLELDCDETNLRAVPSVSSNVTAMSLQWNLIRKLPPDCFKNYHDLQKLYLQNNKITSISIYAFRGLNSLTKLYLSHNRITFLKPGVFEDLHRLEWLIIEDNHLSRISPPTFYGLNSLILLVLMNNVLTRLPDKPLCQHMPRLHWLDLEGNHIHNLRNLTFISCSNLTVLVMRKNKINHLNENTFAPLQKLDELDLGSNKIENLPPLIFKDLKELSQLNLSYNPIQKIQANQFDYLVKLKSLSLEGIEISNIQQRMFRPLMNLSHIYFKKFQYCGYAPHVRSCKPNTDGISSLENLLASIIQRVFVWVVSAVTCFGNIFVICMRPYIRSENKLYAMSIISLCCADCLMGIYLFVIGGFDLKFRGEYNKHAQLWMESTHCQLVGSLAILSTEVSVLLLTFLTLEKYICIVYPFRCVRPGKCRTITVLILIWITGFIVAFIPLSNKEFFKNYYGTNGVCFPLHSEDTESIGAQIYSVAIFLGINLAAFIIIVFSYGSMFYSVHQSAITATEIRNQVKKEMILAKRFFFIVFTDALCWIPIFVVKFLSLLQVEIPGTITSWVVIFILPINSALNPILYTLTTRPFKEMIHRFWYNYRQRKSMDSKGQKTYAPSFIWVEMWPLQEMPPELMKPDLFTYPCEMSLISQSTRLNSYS


Tests used:
Test in all cases: cell-based or functional assay
[1] = target: T1, mouse RXFP1
[2] = target: T2, human RXFP1
[3] = target: human RXFP2 (human, UniProt Q8WXD0 1-754)
human RXFP2, sequence (Q8WXD0 whole entry): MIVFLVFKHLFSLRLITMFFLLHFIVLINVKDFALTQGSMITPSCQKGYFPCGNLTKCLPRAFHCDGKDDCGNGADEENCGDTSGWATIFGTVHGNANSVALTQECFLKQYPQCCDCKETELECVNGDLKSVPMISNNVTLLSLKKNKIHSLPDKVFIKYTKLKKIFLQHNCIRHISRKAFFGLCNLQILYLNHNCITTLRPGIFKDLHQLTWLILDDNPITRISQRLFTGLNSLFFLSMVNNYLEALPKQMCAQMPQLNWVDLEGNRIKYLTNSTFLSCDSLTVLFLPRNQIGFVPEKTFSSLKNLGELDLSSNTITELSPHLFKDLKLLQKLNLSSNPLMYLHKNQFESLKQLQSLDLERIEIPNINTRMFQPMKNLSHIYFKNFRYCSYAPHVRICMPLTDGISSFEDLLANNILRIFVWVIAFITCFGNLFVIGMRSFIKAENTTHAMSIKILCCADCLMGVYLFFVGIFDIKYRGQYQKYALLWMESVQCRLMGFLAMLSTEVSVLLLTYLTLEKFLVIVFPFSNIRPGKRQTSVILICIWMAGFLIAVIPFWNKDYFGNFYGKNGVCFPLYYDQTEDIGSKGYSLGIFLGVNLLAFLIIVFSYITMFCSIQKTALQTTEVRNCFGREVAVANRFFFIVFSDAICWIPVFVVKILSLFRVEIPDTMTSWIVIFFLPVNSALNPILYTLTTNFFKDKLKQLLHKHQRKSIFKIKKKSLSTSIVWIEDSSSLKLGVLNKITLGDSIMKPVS

EC50 mRXFP1 (M), cAMP HTRF assay [1]	EC50 hRXFP1 (M), cAMP HTRF assay [2]	EC50 hRXFP2 (M), cAMP HTRF assay [3]	Binder
4.73e-11 M	4.51e-11 M	4.92e-08 M	RELAX0081 (Fc fusion) chain 1: DKTHTCPPCPAPEFEGGPSVFLFPPKPKDTLMISRTPEVTCVVVDVSHEDPEVKFNWYVDGVEVHNAKTKPREEQYNSTYRVVSVLTVLHQDWLNGKEYKCKVSNKALPASIEKTISKAKGQPREPQVYTLPPCREEMTKNQVSLWCLVKGFYPSDIAVEWESNGQPENNYKTTPPVLDSDGSFFLYSKLTVDKSRWQQGNVFSCSVMHEALHNHYTQKSLSLSPGGGGGSGGGGSGGGGGSQLYSALANKCCHVGCTKRSLARFC chain 2: DKTHTCPPCPAPEFEGGPSVFLFPPKPKDTLMISRTPEVTCVVVDVSHEDPEVKFNWYVDGVEVHNAKTKPREEQYNSTYRVVSVLTVLHQDWLNGKEYKCKVSNKALPASIEKTISKAKGQPREPQVCTLPPSREEMTKNQVSLSCAVKGFYPSDIAVEWESNGQPENNYKTTPPVLDSDGSFFLVSKLTVDKSRWQQGNVFSCSVMHEALHNHYTQKSLSLSPGGGGGSGGGGSGGGGGSSWMEEVIKLCGRELVRAQIAICGMSTWS
8.22e-10 M	1.72e-09 M		RELAX0109 (Fc fusion) chain 1: DKTHTCPPCPAPEFEGGPSVFLFPPKPKDTLMISRTPEVTCVVVDVSHEDPEVKFNWYVDGVEVHNAKTKPREEQYNSTYRVVSVLTVLHQDWLNGKEYKCKVSNKALPASIEKTISKAKGQPREPQVYTLPPCREEMTKNQVSLWCLVKGFYPSDIAVEWESNGQPENNYKTTPPVLDSDGSFFLYSKLTVDKSRWQQGNVFSCSVMHEALHNHYTQKSLSLSPGGGGGSGGGGSGGGGGSQLYSALANKCCHVGCTKRSLARFC chain 2: DKTHTCPPCPAPEFEGGPSVFLFPPKPKDTLMISRTPEVTCVVVDVSHEDPEVKFNWYVDGVEVHNAKTKPREEQYNSTYRVVSVLTVLHQDWLNGKEYKCKVSNKALPASIEKTISKAKGQPREPQVYTLPPCREEMTKNQVSLWCLVKGFYPSDIAVEWESNGQPENNYKTTPPVLDSDGSFFLYSKLTVDKSRWQQGNVFSCSVMHEALHNHYTQKSLSLSPGAAPAPAPAPAPAPAGSSWMEEVIKLCGRELVRAQIAICGMSTWS
1.59e-11 M	2.89e-11 M	1.53e-08 M	RELAX0054 (Fc fusion) chain 1: DKTHTCPPCPAPEFEGGPSVFLFPPKPKDTLMISRTPEVTCVVVDVSHEDPEVKFNWYVDGVEVHNAKTKPREEQYNSTYRVVSVLTVLHQDWLNGKEYKCKVSNKALPASIEKTISKAKGQPREPQVCTLPPSREEMTKNQVSLSCAVKGFYPSDIAVEWESNGQPENNYKTTPPVLDSDGSFFLVSKLTVDKSRWQQGNVFSCSVMHEALHNHYTQKSLSLSPGAAPAPAPAPAPAPAGSQLYSALANKCCHVGCTKRSLARFC chain 2: DKTHTCPPCPAPEFEGGPSVFLFPPKPKDTLMISRTPEVTCVVVDVSHEDPEVKFNWYVDGVEVHNAKTKPREEQYNSTYRVVSVLTVLHQDWLNGKEYKCKVSNKALPASIEKTISKAKGQPREPQVYTLPPCREEMTKNQVSLWCLVKGFYPSDIAVEWESNGQPENNYKTTPPVLDSDGSFFLYSKLTVDKSRWQQGNVFSCSVMHEALHNHYTQKSLSLSPGAAPAPAPAPAPAPAGSSWMEEVIKLCGRELVRAQIAICGMSTWS
4.9e-11 M	5.68e-11 M	3.81e-08 M	RELAX0082 (Fc fusion) chain 1: DKTHTCPPCPAPEFEGGPSVFLFPPKPKDTLMISRTPEVTCVVVDVSHEDPEVKFNWYVDGVEVHNAKTKPREEQYNSTYRVVSVLTVLHQDWLNGKEYKCKVSNKALPASIEKTISKAKGQPREPQVYTLPPCREEMTKNQVSLWCLVKGFYPSDIAVEWESNGQPENNYKTTPPVLDSDGSFFLYSKLTVDKSRWQQGNVFSCSVMHEALHNHYTQKSLSLSPGGGGGSGGGGGSQLYSALANKCCHVGCTKRSLARFC chain 2: DKTHTCPPCPAPEFEGGPSVFLFPPKPKDTLMISRTPEVTCVVVDVSHEDPEVKFNWYVDGVEVHNAKTKPREEQYNSTYRVVSVLTVLHQDWLNGKEYKCKVSNKALPASIEKTISKAKGQPREPQVCTLPPSREEMTKNQVSLSCAVKGFYPSDIAVEWESNGQPENNYKTTPPVLDSDGSFFLVSKLTVDKSRWQQGNVFSCSVMHEALHNHYTQKSLSLSPGGGGGSGGGGGSSWMEEVIKLCGRELVRAQIAICGMSTWS
1.51e-11 M	1.88e-11 M	3.39e-08 M	RELAX0055 (Fc fusion) chain 1: DKTHTCPPCPAPEFEGGPSVFLFPPKPKDTLMISRTPEVTCVVVDVSHEDPEVKFNWYVDGVEVHNAKTKPREEQYNSTYRVVSVLTVLHQDWLNGKEYKCKVSNKALPASIEKTISKAKGQPREPQVYTLPPCREEMTKNQVSLWCLVKGFYPSDIAVEWESNGQPENNYKTTPPVLDSDGSFFLYSKLTVDKSRWQQGNVFSCSVMHEALHNHYTQKSLSLSPGAPAPAPAPAGSQLYSALANKCCHVGCTKRSLARFC chain 2: DKTHTCPPCPAPEFEGGPSVFLFPPKPKDTLMISRTPEVTCVVVDVSHEDPEVKFNWYVDGVEVHNAKTKPREEQYNSTYRVVSVLTVLHQDWLNGKEYKCKVSNKALPASIEKTISKAKGQPREPQVCTLPPSREEMTKNQVSLSCAVKGFYPSDIAVEWESNGQPENNYKTTPPVLDSDGSFFLVSKLTVDKSRWQQGNVFSCSVMHEALHNHYTQKSLSLSPGAPAPAPAPAGSSWMEEVIKLCGRELVRAQIAICGMSTWS
3.27e-11 M	3.87e-11 M	6.48e-08 M	RELAX0056 (Fc fusion) chain 1: DKTHTCPPCPAPEFEGGPSVFLFPPKPKDTLMISRTPEVTCVVVDVSHEDPEVKFNWYVDGVEVHNAKTKPREEQYNSTYRVVSVLTVLHQDWLNGKEYKCKVSNKALPASIEKTISKAKGQPREPQVYTLPPCREEMTKNQVSLWCLVKGFYPSDIAVEWESNGQPENNYKTTPPVLDSDGSFFLYSKLTVDKSRWQQGNVFSCSVMHEALHNHYTQKSLSLSPGAPAPAPAPAPAPAPAPAPAGSQLYSALANKCCHVGCTKRSLARFC chain 2: DKTHTCPPCPAPEFEGGPSVFLFPPKPKDTLMISRTPEVTCVVVDVSHEDPEVKFNWYVDGVEVHNAKTKPREEQYNSTYRVVSVLTVLHQDWLNGKEYKCKVSNKALPASIEKTISKAKGQPREPQVCTLPPSREEMTKNQVSLSCAVKGFYPSDIAVEWESNGQPENNYKTTPPVLDSDGSFFLVSKLTVDKSRWQQGNVFSCSVMHEALHNHYTQKSLSLSPGAPAPAPAPAPAPAPAPAPAGSSWMEEVIKLCGRELVRAQIAICGMSTWS
1.34e-11 M	2.81e-11 M	2.42e-08 M	RELAX0083 (Fc fusion) chain 1: DKTHTCPPCPAPEFEGGPSVFLFPPKPKDTLMISRTPEVTCVVVDVSHEDPEVKFNWYVDGVEVHNAKTKPREEQYNSTYRVVSVLTVLHQDWLNGKEYKCKVSNKALPASIEKTISKAKGQPREPQVYTLPPCREEMTKNQVSLWCLVKGFYPSDIAVEWESNGQPENNYKTTPPVLDSDGSFFLYSKLTVDKSRWQQGNVFSCSVMHEALHNHYTQKSLSLSPGGGGGGSQLYSALANKCCHVGCTKRSLARFC chain 2: DKTHTCPPCPAPEFEGGPSVFLFPPKPKDTLMISRTPEVTCVVVDVSHEDPEVKFNWYVDGVEVHNAKTKPREEQYNSTYRVVSVLTVLHQDWLNGKEYKCKVSNKALPASIEKTISKAKGQPREPQVCTLPPSREEMTKNQVSLSCAVKGFYPSDIAVEWESNGQPENNYKTTPPVLDSDGSFFLVSKLTVDKSRWQQGNVFSCSVMHEALHNHYTQKSLSLSPGGGGGGSSWMEEVIKLCGRELVRAQIAICGMSTWS
